Measurements: patent US20150344570A1 (published 2015)

Legend:
[1] = target: T1, FcγRIIa R extracellular domain with C-terminal His tag (human, UniProt P12318 34-217); test: SPR (Biacore), relative FcγRIIa R binding, GpH7-A5/GpH7-B3/GpL16-k0 = 100
T1 construct: extracellular domain; also called FcgRIIa R; 2aR; not shown: His tag at the C terminus
T1 sequence (looked up): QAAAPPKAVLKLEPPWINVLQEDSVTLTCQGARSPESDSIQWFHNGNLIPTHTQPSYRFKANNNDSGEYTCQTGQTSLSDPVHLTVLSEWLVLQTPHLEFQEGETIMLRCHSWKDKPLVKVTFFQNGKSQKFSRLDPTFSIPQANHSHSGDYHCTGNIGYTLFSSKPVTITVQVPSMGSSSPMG

FcγRIIb = target: T2, FcγRIIb (human, UniProt P31994 43-217); test: SPR (Biacore), captured antibody, FcγR as analyte; relative binding, control GpH7-A5/GpH7-B3/GpL16-k0 = 100
T2 construct: extracellular domain; also called FcgRIIb; 2b
T2 sequence (looked up): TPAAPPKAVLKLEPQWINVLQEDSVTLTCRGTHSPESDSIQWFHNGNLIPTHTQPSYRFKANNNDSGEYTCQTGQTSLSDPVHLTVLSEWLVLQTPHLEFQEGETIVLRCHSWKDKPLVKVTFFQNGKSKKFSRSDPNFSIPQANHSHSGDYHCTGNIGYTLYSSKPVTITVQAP
Description: The heterodimerized antibodies He Abs in which one of the H chains was introduced with an alteration were assayed for their binding activities to each activating FcγR and inhibitory FcγR according to the method described in Example 4. […] The activating FcγRs in FIGS. 26, 27, 28, and 29 are FcγRIa, FcγRIIa (R), FcγRIIa (H), and FcγRIIIa, respectively.
Analysis of interaction between objective antibody and the FcγR was carried out using Biacore T100 (GE Healthcare). HBS-EP+ (GE Healthcare) was used as the running buffer, and the measurement temperature was set to 25° C. Chips produced by immobilizing the antigen peptide by the amine coupling method to a Series S Sencor Chip CM5 (GE Healthcare), or alternatively, chips produced by allowing preliminarily biotinylated antigen peptides to interact with and immobilize onto a Series S Sensor Chip SA (certified) (GE Healthcare) were used. Antibodies of interest were captured onto an antigen peptide-immobilized chip, and allowed to interact to each FcγR diluted with running buffer. To regenerate and repeatedly use the chip, the antibodies captured on the chip were washed off by reacting 10 mM glycine-HCl, pH 1.5.

B1: GpH7-A5/GpH7-B3 variant S337_16H/GpL16-k0 (antibody, human IgG1, kappa)
heavy 1: not shown
heavy 2: not shown
light: DIVMTQSPLSLPVTPGEPASISCQASESLVHSNRNTYLHWYLQKPGQSPQLLIYKVSNRFSGVPDRFSGSGSGTDFTLKISRVEAEDVGVYYCSQNTHVPPTFGQGTKVEIERTVAAPSVFIFPPSDEQLKSGTASVVCLLNNFYPREAKVQWKVDNALQSGNSQESVTEQDSKDSTYSLSSTLTLSKADYEKHKVYACEVTHQGLSSPVTKSFNRGEC
notes: heterodimerized: alteration in one H chain only; also called He Ab S337_16H
He/Con_2aR [1]: 109 % of control

B2: GpH7-A5/GpH7-B3 variant V266_12R/GpL16-k0 (antibody, human IgG1, kappa)
heavy 1: not shown
heavy 2: not shown
light: DIVMTQSPLSLPVTPGEPASISCQASESLVHSNRNTYLHWYLQKPGQSPQLLIYKVSNRFSGVPDRFSGSGSGTDFTLKISRVEAEDVGVYYCSQNTHVPPTFGQGTKVEIERTVAAPSVFIFPPSDEQLKSGTASVVCLLNNFYPREAKVQWKVDNALQSGNSQESVTEQDSKDSTYSLSSTLTLSKADYEKHKVYACEVTHQGLSSPVTKSFNRGEC
notes: heterodimerized anti-glypican-3 IgG1; alteration in one H chain only; also called He Ab
He/Con_2b (FcγRIIb): -1.1 control = 100

B3: GpH7-A5/GpH7-B3 variant S337_15Y/GpL16-k0 (antibody, human IgG1, kappa)
heavy 1: not shown
heavy 2: not shown
light: DIVMTQSPLSLPVTPGEPASISCQASESLVHSNRNTYLHWYLQKPGQSPQLLIYKVSNRFSGVPDRFSGSGSGTDFTLKISRVEAEDVGVYYCSQNTHVPPTFGQGTKVEIERTVAAPSVFIFPPSDEQLKSGTASVVCLLNNFYPREAKVQWKVDNALQSGNSQESVTEQDSKDSTYSLSSTLTLSKADYEKHKVYACEVTHQGLSSPVTKSFNRGEC
notes: heterodimerized: alteration in one H chain only; also called He Ab S337_15Y
He/Con_2aR [1]: 105 % of control

B4: GpH7-A5/GpH7-B3 variant T335_02A/GpL16-k0 (antibody, human IgG1, kappa)
heavy 1: not shown
heavy 2: not shown
light: DIVMTQSPLSLPVTPGEPASISCQASESLVHSNRNTYLHWYLQKPGQSPQLLIYKVSNRFSGVPDRFSGSGSGTDFTLKISRVEAEDVGVYYCSQNTHVPPTFGQGTKVEIERTVAAPSVFIFPPSDEQLKSGTASVVCLLNNFYPREAKVQWKVDNALQSGNSQESVTEQDSKDSTYSLSSTLTLSKADYEKHKVYACEVTHQGLSSPVTKSFNRGEC
notes: heterodimerized: alteration in one H chain only; also called He Ab T335_02A
He/Con_2aR [1]: 102 % of control

B5: GpH7-A5/GpH7-B3 variant S337_03V/GpL16-k0 (antibody, human IgG1, kappa)
heavy 1: not shown
heavy 2: not shown
light: DIVMTQSPLSLPVTPGEPASISCQASESLVHSNRNTYLHWYLQKPGQSPQLLIYKVSNRFSGVPDRFSGSGSGTDFTLKISRVEAEDVGVYYCSQNTHVPPTFGQGTKVEIERTVAAPSVFIFPPSDEQLKSGTASVVCLLNNFYPREAKVQWKVDNALQSGNSQESVTEQDSKDSTYSLSSTLTLSKADYEKHKVYACEVTHQGLSSPVTKSFNRGEC
notes: heterodimerized: alteration in one H chain only; also called He Ab S337_03V
He/Con_2aR [1]: 106 % of control

B6: GpH7-A5/GpH7-B3 variant S337_10E/GpL16-k0 (antibody, human IgG1, kappa)
heavy 1: not shown
heavy 2: not shown
light: DIVMTQSPLSLPVTPGEPASISCQASESLVHSNRNTYLHWYLQKPGQSPQLLIYKVSNRFSGVPDRFSGSGSGTDFTLKISRVEAEDVGVYYCSQNTHVPPTFGQGTKVEIERTVAAPSVFIFPPSDEQLKSGTASVVCLLNNFYPREAKVQWKVDNALQSGNSQESVTEQDSKDSTYSLSSTLTLSKADYEKHKVYACEVTHQGLSSPVTKSFNRGEC
notes: heterodimerized: alteration in one H chain only; also called He Ab S337_10E
He/Con_2aR [1]: 112 % of control

B7: GpH7-A5/GpH7-B3 variant S337_18N/GpL16-k0 (antibody, human IgG1, kappa)
heavy 1: not shown
heavy 2: not shown
light: DIVMTQSPLSLPVTPGEPASISCQASESLVHSNRNTYLHWYLQKPGQSPQLLIYKVSNRFSGVPDRFSGSGSGTDFTLKISRVEAEDVGVYYCSQNTHVPPTFGQGTKVEIERTVAAPSVFIFPPSDEQLKSGTASVVCLLNNFYPREAKVQWKVDNALQSGNSQESVTEQDSKDSTYSLSSTLTLSKADYEKHKVYACEVTHQGLSSPVTKSFNRGEC
notes: heterodimerized: alteration in one H chain only; also called He Ab S337_18N
He/Con_2aR [1]: 107 % of control

B8: GpH7-A5/GpH7-B3 variant T335_05P/GpL16-k0 (antibody, human IgG1, kappa)
heavy 1: not shown
heavy 2: not shown
light: DIVMTQSPLSLPVTPGEPASISCQASESLVHSNRNTYLHWYLQKPGQSPQLLIYKVSNRFSGVPDRFSGSGSGTDFTLKISRVEAEDVGVYYCSQNTHVPPTFGQGTKVEIERTVAAPSVFIFPPSDEQLKSGTASVVCLLNNFYPREAKVQWKVDNALQSGNSQESVTEQDSKDSTYSLSSTLTLSKADYEKHKVYACEVTHQGLSSPVTKSFNRGEC
notes: heterodimerized: alteration in one H chain only; also called He Ab T335_05P
He/Con_2aR [1]: 104 % of control

B9: GpH7-A5/GpH7-B3 variant T335_10E/GpL16-k0 (antibody, human IgG1, kappa)
heavy 1: not shown
heavy 2: not shown
light: DIVMTQSPLSLPVTPGEPASISCQASESLVHSNRNTYLHWYLQKPGQSPQLLIYKVSNRFSGVPDRFSGSGSGTDFTLKISRVEAEDVGVYYCSQNTHVPPTFGQGTKVEIERTVAAPSVFIFPPSDEQLKSGTASVVCLLNNFYPREAKVQWKVDNALQSGNSQESVTEQDSKDSTYSLSSTLTLSKADYEKHKVYACEVTHQGLSSPVTKSFNRGEC
notes: heterodimerized: alteration in one H chain only; also called He Ab T335_10E
He/Con_2aR [1]: 111 % of control

B10: GpH7-A5/GpH7-B3 variant S337_09D/GpL16-k0 (antibody, human IgG1, kappa)
heavy 1: not shown
heavy 2: not shown
light: DIVMTQSPLSLPVTPGEPASISCQASESLVHSNRNTYLHWYLQKPGQSPQLLIYKVSNRFSGVPDRFSGSGSGTDFTLKISRVEAEDVGVYYCSQNTHVPPTFGQGTKVEIERTVAAPSVFIFPPSDEQLKSGTASVVCLLNNFYPREAKVQWKVDNALQSGNSQESVTEQDSKDSTYSLSSTLTLSKADYEKHKVYACEVTHQGLSSPVTKSFNRGEC
notes: heterodimerized: alteration in one H chain only; also called He Ab S337_09D
He/Con_2aR [1]: 115 % of control
